We go through two molecules from article PMC4803054 (Genes & Development, 2016).

What all share (test): pull-down
The target in one experiment is Mph1-MHF complex (S. cerevisiae, UniProt P40562 1-993; Q3E835 1-90; Q3E829 1-80).
Experiment [1] has as its target T1, Mte1 (GST tag cleaved off) (S. cerevisiae, UniProt P53227 1-271).
T1 sequence (looked up): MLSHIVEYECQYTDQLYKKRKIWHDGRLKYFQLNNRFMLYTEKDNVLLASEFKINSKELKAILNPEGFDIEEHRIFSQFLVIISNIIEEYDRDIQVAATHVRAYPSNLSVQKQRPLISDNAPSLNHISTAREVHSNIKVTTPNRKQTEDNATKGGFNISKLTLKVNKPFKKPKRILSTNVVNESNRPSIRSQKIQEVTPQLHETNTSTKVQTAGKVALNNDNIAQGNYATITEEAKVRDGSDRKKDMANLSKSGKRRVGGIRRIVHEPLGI

A further experiment addresses MHF complex (Mhf1-Mhf2) (S. cerevisiae, UniProt Q3E835 1-90; Q3E829 1-80).

B1: GST-Mte1 fragment 201-271 (domain or fragment)
chain: LHETNTSTKVQTAGKVALNNDNIAQGNYATITEEAKVRDGSDRKKDMANLSKSGKRRVGGIRRIVHEPLGI
In the case of B1, the binding result with Mph1-MHF complex was “binds”.

B2: MBP-tagged Mph1(754–993) (domain or fragment, S. cerevisiae, UniProt P40562 754-993, looked up)
chain: SNENPSKKRKIFKALDNLENDSTEEASSSLETEDEEVSDDNNVFIAEGQNGCQKDLETAIIRTGESLTTLKPLHNFERPNMALFVNDCGLPTKIEKNVKDIRGNQHNLEKEKSCTVDKNNMVLSLDDWNFFRNRYIPEGVSFDVEPNFVQYTKGVKVPHCHKVSKIITLFNDESNDNKKRTIDMNYTKCLARGMLRDEKKFVKVNDKSQVDNNSVNHDSSQSFTLSNAELDDILGSDSDF
As to B2, the binding result (in experiment [1]; with MHF complex (Mhf1-Mhf2)) was “binds” in each case.
